The text below walks through data of patent US20120316071A1.

The target in test [1] is Recombinant Human DLL4 (R&D Systems Cat#1506-D4/CF) (human) (UniProt Q9NR61). The test is described as follows: ECL multispot (MSD), 20 nM Fab.
Test [2] concerns the target rHuman Notch-1/Fc Chimera, CF (R&D Systems Cat#3647-TK) (human) (UniProt P46531). The test is described as follows: ECL multispot (MSD), 20 nM Fab.
In test [3] the target is rHuman EGF R/Fc Chimera, CF (R&D Systems Cat#344-ER) (human) (UniProt P00533). The test is described as follows: ECL multispot (MSD), 20 nM Fab.
Test [4] concerns the target rHuman ErbB2/Fc Chimera, CF (R&D Systems Cat#1129-ER) (human) (UniProt P04626). The test is described as follows: ECL multispot (MSD), 20 nM Fab.
Test [5] deals with rHuman CD44/Fc Chimera, CF (R&D Systems Cat#3660-CD) (human) (UniProt P16070). Kind of test: ECL multispot (MSD), 20 nM Fab.
In test [6] the target is rHuman HGF R/c-MET/Fc Chimera, CF (R&D Systems Cat#358-MT/CF) (human) (UniProt P08581). Kind of test: ECL multispot (MSD) binding assay, antigens spotted on plate, 20 nM Fab.
Test [7] addresses Recombinant Human DLL4 (R&D Systems Cat#1506-D4/CF) (human) (UniProt Q9NR61). The description is as above.
Test [8] concerns the target rHuman CD44/Fc Chimera, CF (R&D Systems Cat#3660-CD) (human) (UniProt P16070). The test is described as above.
For test [9], the target named is rHuman Notch-1/Fc Chimera, CF (R&D Systems Cat#3647-TK) (human) (UniProt P46531). The description is as above.
Test [10] addresses rHuman IGF-1 sR, (IGF-1 sR), CF (R&D Systems Cat#391-GR) (human) (UniProt P08069). Described as above.
Test [11] concerns the target rHuman HGF R/c-MET/Fc Chimera, CF (R&D Systems Cat#358-MT/CF) (human) (UniProt P08581). Kind of test: ECL (MSD) multispot binding assay, antigen spotted on plate, 20 nM Fab.
Test [12] deals with rHuman P-Cadherin/Fc Chimera, CF (R&D Systems Cat#861-PC) (human) (UniProt P22223). The description is as above.
The target in test [13] is rHuman Erythropoietin R/Fc Chimera, CF (R&D Systems Cat#963-ER) (human) (UniProt P19235). The test is described as above.
The target of test [14] is rHuman CD44/Fc Chimera, CF (R&D Systems Cat#3660-CD) (human) (UniProt P16070). The test is described as above.
The target in test [15] is rHuman HGF R/c-MET/Fc Chimera, CF (R&D Systems Cat#358-MT/CF) (human) (UniProt P08581). Kind of test: ECL multispot (MSD) binding assay, antigen spotted on plate, Fab in solution; blank spot 424.
Test [16] concerns the target rHuman EGF R/Fc Chimera, CF (R&D Systems Cat#344-ER) (human) (UniProt P00533). Described as above.
The target in test [17] is rHuman P-Cadherin/Fc Chimera, CF (R&D Systems Cat#861-PC) (human) (UniProt P22223). The test is described as above.
Test [18] has as its target rHuman ErbB2/Fc Chimera, CF (R&D Systems Cat#1129-ER) (human) (UniProt P04626). Described as above.
The target in test [19] is rHuman IGF-1 sR, CF (R&D Systems Cat#391-GR) (human) (UniProt P08069). The test is described as above.
For test [20], the target named is rHuman CD44/Fc Chimera, CF (R&D Systems Cat#3660-CD) (human) (UniProt P16070). The description is as above.
Test [21] deals with rHuman Notch-1/Fc Chimera, CF (R&D Systems Cat#3647-TK) (human) (UniProt P46531). The test is described as above.
The target in test [22] is rHuman HGF R/c-MET/Fc Chimera, CF (R&D Systems Cat#358-MT/CF) (human) (UniProt P08581). The test is described as follows: ECL multispot (MSD) binding assay, antigen spotted on plate, Fab in solution; blank spot 240.
Test [23] has as its target rHuman EGF R/Fc Chimera, CF (R&D Systems Cat#344-ER) (human) (UniProt P00533). Described as above.
The target of test [24] is rHuman P-Cadherin/Fc Chimera, CF (R&D Systems Cat#861-PC) (human) (UniProt P22223). Described as above.
For test [25], the target named is rHuman ErbB2/Fc Chimera, CF (R&D Systems Cat#1129-ER) (human) (UniProt P04626). The description is as above.
Test [26] has as its target rHuman IGF-1 sR, CF (R&D Systems Cat#391-GR) (human) (UniProt P08069). The description is as above.
The target in test [27] is rHuman CD44/Fc Chimera, CF (R&D Systems Cat#3660-CD) (human) (UniProt P16070). Described as above.
Test [28] has as its target rHuman Notch-1/Fc Chimera, CF (R&D Systems Cat#3647-TK) (human) (UniProt P46531). The description is as above.
Test [29] concerns the target rHuman HGF R/c-MET/Fc Chimera, CF (R&D Systems Cat#358-MT/CF) (human) (UniProt P08581). The test is described as follows: ECL multispot (MSD) binding assay, antigen spotted on plate, Fab in solution; blank spot 213.
Test [30] addresses rHuman EGF R/Fc Chimera, CF (R&D Systems Cat#344-ER) (human) (UniProt P00533). Described as above.
In test [31] the target is rHuman P-Cadherin/Fc Chimera, CF (R&D Systems Cat#861-PC) (human) (UniProt P22223). The description is as above.
The target in test [32] is rHuman ErbB2/Fc Chimera, CF (R&D Systems Cat#1129-ER) (human) (UniProt P04626). The description is as above.
Test [33] deals with rHuman IGF-1 sR, CF (R&D Systems Cat#391-GR) (human) (UniProt P08069). The test is described as above.
Test [34] has as its target rHuman CD44/Fc Chimera, CF (R&D Systems Cat#3660-CD) (human) (UniProt P16070). The test is described as above.
Test [35] deals with rHuman Notch-1/Fc Chimera, CF (R&D Systems Cat#3647-TK) (human) (UniProt P46531). The test is described as above.
Test [36] deals with rHuman HGF R/c-MET/Fc Chimera (human) (UniProt P08581). The test is described as follows: ECL (MSD) multispot assay, antigen spotted; blank spot of this row 424.
Test [37] addresses rHuman IGF-1 sR (insulin-like growth factor-1 soluble receptor) (human) (UniProt P08069). Described as above.

In the case of “Fab VH3-23_IGHD2-21*01>3_IGHJ6*01 H100E/S108P/Y113G (EPG) & V2-13_IGLJ2*01”, the ECL signal ratio (column head gives no unit) in [1] and in [2] was 2.3 in each case.

With “Fab VH3-23_IGHD2-21*01>3_IGHJ6*01 H100E/S108P/Y113G (EPG) Y109L & V2-13_IGLJ2*01”, the figures for the ECL signal ratio (column head gives no unit) in test [3] and in [4] were 2.2 and 2.1, respectively.

Consider “Fab VH3-23_IGHD2-21*01>3_IGHJ6*01 H100E/S108P/Y113G (EPG) Y109W & V2-13_IGLJ2*01”, for which the values for the ECL signal ratio (column head gives no unit) in test [1] and in [5] were 4.3 and 2.4, respectively.

With “Fab VH3-23_IGHD2-21*01>3_IGHJ6*01 H100E/S108P/Y113G Y110N & V2-13_IGLJ2*01”, the ECL multispot signal (ratio to blank; column not labelled) in [6] worked out at 2.3.

With “Fab VH3-23_IGHD2-21*01>3_IGHJ6*01 H100E/S108P/Y113G Y110W & V2-13_IGLJ2*01”, the ECL multispot signal (ratio to blank; column not labelled) was 3.9 in test [7], 2.1 in test [8], 3.2 in [9] and 2.3 in test [10].

For the substance “Fab VH3-23_IGHD2-21*01>3_IGHJ6*01 H100E/S108P/Y113G/Y110R & V2-13_IGLJ2*01”, the figures for the ECL signal/blank ratio in test [11] and in test [12] were 3.9 and 3.3, respectively.

With “Fab VH3-23_IGHD2-21*01>3_IGHJ6*01 H100E/S108P/Y113G/Y111E & V2-13_IGLJ2*01”, the ECL signal/blank ratio in test [13] worked out at 2.9.

As to “Fab VH3-23_IGHD2-21*01>3_IGHJ6*01 H100E/S108P/Y113G/Y111W & V2-13_IGLJ2*01”, in test [14], the ECL signal/blank ratio is 3.4.

On to “Fab VH5-51_IGHD5-18*01>3_IGHJ4*01 G100K/G104T & V3-4_IGLJ1*01”, for which the ECL signal in test [15] amounted to 838; in test [16], 852; in [17] it was 319; in test [18], 1100; in test [19] it was 877; in test [20] it was 579. Further, the ECL signal came to 543 in test [21]; 936 in [22]; 915 in test [23]; 346 in [24]; 1070 in [25]; 964 in test [26]. Further, the ECL signal in [27] was 633; in [28], 507; in test [29], 867; in test [30] it was 768; in test [31], 226; in test [32] it was 1100. The ECL signal in test [33] was found to be 781; in [34], 540; in test [35] it was 437; in test [36], 838; in test [37], 877.
